Assay results: article PMC4359371, “Analysis of the crystal structure of an active MCM hexamer” (eLife, 2014)

Columns and labels:
[1] = molecular target: the molecule itself; assay: crystal structure; PfMCMAAA with Mg/ADP, hanging drop, 50 mM sodium cacodylate pH 6.0, 50 mM magnesium acetate, 30% MPD, 5% glycerol; space group P1, 16 monomers in the asymmetric unit; 3.80 Å
[2] = molecular target: the molecule itself; assay: crystal structure; Sso-PfMCM with Mg/ADP, hanging drop, 100 mM HEPES pH 7.6, 350 mM MgCl2, 3% PEG 3350; space group P6_(3), hexamer on a crystallographic threefold axis; 2.70 Å

B1: Pyrococcus furiosus MCM AAA+ ATPase domain, crystallized construct (aa 263-361/729-966) (domain or fragment, UniProt Q8U3I4 263-966, looked up)
chain: PEEEQIIKELAKRKDIVDAIVDSIAPAIYGYKEVKKGIALALFGGVSRKLPDGTRLRGDIHVLLVGDPGVAKSQILRYVANLAPRAIYTSGKSSSAAGLTAAAVRDEFTGGWVLEAGALVLADGGYALIDELDKMSDRDRSVIHEALEQQTISISKAGITATLNARTTVIAAANPKQGRFNRMKNPFEQIDLPPTLLSRFDLIFVLIDEPDDKIDSEVARHILRVRRGESEVVAPKIPHEILRKYIAYARKNIHPVISEEAMEEIEKYYVRMRKSVKKTKGEEEGIPPIPITARQLEALIRLSEAHARMRLSPIVTREDAREAIKLMEYTLKQIAMD
notes: PfMCM AAA+ domain, Pyrococcus furiosus MCM, aa 263-361/729-966 (intein aa 362-728 genetically removed); amplified from P. furiosus genomic DNA (ATCC); numbers are database (intein-containing) numbers; A different construct (aa 252-361/729-1049) was used for the unwinding experiments and is not this molecule; also called PfMCMAAA; PfMCM-AAA; not shown: His6, N-terminal, cleaved; SUMO, N-terminal, …
B1 was tested, and the “stoichiometry N” value [1] was 16.

B2: Sso-PfMCM chimera (Sulfolobus solfataricus MCM N-terminal domain fused to Pyrococcus furiosus MCM AAA+ ATPase domain) (enzyme, UniProt Q9UXG1 1-269, looked up)
chain: MEIPSKQIDYRDVFIEFLTTFKGNNNQNKYIERINELVAYRKKSLIIEFSDVLSFNENLAYEIINNTKIILPILEGALYDHILQLDPTYQRDIEKVHVRIVGIPRVIELRKIRSTDIGKLITIDGILVKVTPVKERIYKATYKHIHPDCMQEFEWPEDEEMPEVLEMPTICPKCGKPGQFRLIPEKTKLIDWQKAVIQERPEEVPSGQLPRQLEIILEDDLVDSARPGDRVKVTGILDIKQDSPVKRGSRAVFDIYMKVSSIEVSQKVLQELEISPEEEQIIKELAKRKDIVDAIVDSIAPAIYGYKEVKKGIALALFGGVSRKLPDGTRLRGDIHVLLVGDPGVAKSQILRYVANLAPRAIYTSGKSSSAAGLTAAAVRDEFTGGWVLEAGALVLADGGYALIDELDKMSDRDRSVIHEALEQQTISISKAGITATLNARTTVIAAANPKQGRFNRMKNPFEQIDLPPTLLSRFDLIFVLIDEPDDKIDSEVARHILRVRRGESEVVAPKIPHEILRKYIAYARKNIHPVISEEAMEEIEKYYVRMRKSVKKTKGEEEGIPPIPITARQLEALIRLSEAHARMRLSPIVTREDAREAIKLMEYTLKQIAMD
notes: SsoMCM N-terminal domain (SsoMCMN), Sulfolobus solfataricus MCM, aa 1-269; amplified from S. solfataricus genomic DNA (ATCC); PfMCM AAA+ domain (PfMCMAAA), Pyrococcus furiosus MCM, aa 257-361/729-966 = aa 257-966 with its intein (aa 362-728) genetically removed; lacks the C-terminal helix-turn-helix domain (aa 967-1049); numbers are database (intein-containing) numbers; Crystallised with Mg/ADP; …
For B2, the “stoichiometry N” value [2] was 6.
